Where “and” joins values, the source holds several entries; their conditions need not be identical. Identical values can stand only once.
Columns and labels:
[1] = target: PsaA receptor on Detroit 562 human nasopharyngeal epithelial cells (human); experiment: coated fluospheres at 1:50 dilution on Detroit 562 cells
[2] = target: PsaA receptor on Detroit 562 human nasopharyngeal epithelial cells (human); experiment: coated fluorospheres on Detroit 562 cells, 1640±210 beads/well
[3] = target: PsaA receptor on Detroit 562 human nasopharyngeal epithelial cells (human); experiment: competitor P4 in solution against P4-coated beads on Detroit 562 cells
[4] = target: PsaA receptor on Detroit 562 human nasopharyngeal epithelial cells (human); experiment: competition of PsaA-coated bead adherence to Detroit 562 cells by P4 in solution
[5] = target: PsaA receptor on Detroit 562 human nasopharyngeal epithelial cells (human); experiment: homologous competitor P4 in solution against P4-coated fluospheres on Detroit 562 cells
[6] = target: PsaA receptor on Detroit 562 human nasopharyngeal epithelial cells (human); experiment: competition of PsaA-coated bead adherence to Detroit 562 cells by P4 in solution (second of the three doses, printed 100 µg)
[7] = target: PsaA receptor on Detroit 562 human nasopharyngeal epithelial cells (human); experiment: time course on Detroit 562 cells, n=6, 20 min
[8] = target: PsaA receptor on Detroit 562 human nasopharyngeal epithelial cells (human); experiment: time course on Detroit 562 cells, n=6, 140 min
[9] = target: PsaA receptor on Detroit 562 human nasopharyngeal epithelial cells (human); experiment: time course on Detroit 562 cells, n=6, 180 min
[10] = target: PsaA receptor on Detroit 562 human nasopharyngeal epithelial cells (human); experiment: 2,600 fluospheres/well on Detroit 562 cells, day 1 after labeling
[11] = target: PsaA receptor on Detroit 562 human nasopharyngeal epithelial cells (human); experiment: 2,600 fluospheres/well on Detroit 562 cells, day 60 after labeling
[12] = target: PsaA receptor on Detroit 562 human nasopharyngeal epithelial cells (human); experiment: adherence of unsaturated rPsaA fluospheres to Detroit 562 cells with P3 peptide added
[13] = target: PsaA receptor on Detroit 562 human nasopharyngeal epithelial cells (human); experiment: cold chase with non-fluorescent PsaA-coated spheres against PsaA-coated fluospheres on Detroit 562 cells

| Substance | adherence signal (FU) [1] | adherence (mean FU) [2] | percent reduction in adherence [3] | % reduction in FU [4] | percent reduction in adherence [5] | % reduction in FU [6] | mean adherence signal (FU) [7] | mean adherence signal (FU) [8] | mean adherence signal (FU) [9] | mean adherence (FU) [10] | mean adherence (FU) [11] | fold enhancement of binding by P3 peptide [12] | % inhibition of adherence of PsaA-coated fluospheres [13] |
| --- | --- | --- | --- | --- | --- | --- | --- | --- | --- | --- | --- | --- | --- |
| P4 peptide (PsaA amino acid residues 251 to 278 with DD changed to KR) | > 100000 FU | 19300 FU | 89.4% and 87.6% and 88.9% | 23% | 89.4% and 87.6% and 88.9% | 68% |  |  |  |  |  |  |  |
| recombinant pneumococcal surface adhesin A (rPsaA) of Streptococcus pneumoniae (from UniProt P0A4G2 20-309) (ligand) | > 100000 FU |  |  |  |  |  | 2320 FU | 16600 FU | 17500 FU | 30100 FU | 30600 FU | < 2.5 fold | < 31% |

Source: patent publication US20080305123A1
